Target: flag-TBC1D9B, full length, wild type (human, UniProt Q66K14-1 1-1250)
Assay: co-IP

flag-TBC1D9B, full length, wild type, sequence (Q66K14 whole entry): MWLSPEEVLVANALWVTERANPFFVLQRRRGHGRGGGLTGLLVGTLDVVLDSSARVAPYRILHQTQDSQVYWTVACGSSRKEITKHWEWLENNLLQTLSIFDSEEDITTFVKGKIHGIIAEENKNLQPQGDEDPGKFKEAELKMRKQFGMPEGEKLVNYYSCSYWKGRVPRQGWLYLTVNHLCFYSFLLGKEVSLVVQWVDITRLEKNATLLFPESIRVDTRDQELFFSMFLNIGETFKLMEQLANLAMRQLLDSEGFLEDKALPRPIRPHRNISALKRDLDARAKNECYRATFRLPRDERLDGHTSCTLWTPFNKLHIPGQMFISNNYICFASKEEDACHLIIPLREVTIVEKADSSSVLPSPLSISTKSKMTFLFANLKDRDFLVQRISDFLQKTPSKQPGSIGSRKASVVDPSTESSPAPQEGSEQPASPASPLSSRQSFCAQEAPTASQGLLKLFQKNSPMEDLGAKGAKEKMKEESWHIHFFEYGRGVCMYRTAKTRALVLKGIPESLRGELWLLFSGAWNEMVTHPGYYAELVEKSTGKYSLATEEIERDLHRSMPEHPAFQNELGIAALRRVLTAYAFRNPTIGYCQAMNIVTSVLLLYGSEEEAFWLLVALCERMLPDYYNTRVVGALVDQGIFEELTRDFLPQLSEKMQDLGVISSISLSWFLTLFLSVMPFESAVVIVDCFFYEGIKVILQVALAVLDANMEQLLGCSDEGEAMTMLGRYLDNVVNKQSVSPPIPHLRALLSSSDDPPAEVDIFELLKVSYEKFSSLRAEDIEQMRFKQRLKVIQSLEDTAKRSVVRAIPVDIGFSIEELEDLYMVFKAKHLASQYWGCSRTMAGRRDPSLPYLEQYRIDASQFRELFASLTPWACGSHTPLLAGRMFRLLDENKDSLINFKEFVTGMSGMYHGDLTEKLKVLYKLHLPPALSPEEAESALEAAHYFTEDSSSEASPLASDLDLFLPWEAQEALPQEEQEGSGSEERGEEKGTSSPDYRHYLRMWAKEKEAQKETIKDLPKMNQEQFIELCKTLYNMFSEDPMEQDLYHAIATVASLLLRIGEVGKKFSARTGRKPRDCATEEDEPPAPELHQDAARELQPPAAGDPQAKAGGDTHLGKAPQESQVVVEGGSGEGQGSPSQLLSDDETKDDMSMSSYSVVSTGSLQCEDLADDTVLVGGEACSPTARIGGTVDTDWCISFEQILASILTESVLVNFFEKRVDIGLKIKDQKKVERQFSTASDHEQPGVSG

B1: GFP-Rab11aQ70L (natural protein, UniProt P62491 1-216, looked up)
chain: MGTRDDEYDYLFKVVLIGDSGVGKSNLLSRFTRNEFNLESKSTIGVEFATRSIQVDGKTIKAQIWDTAGLERYRAITSAYYRGAVGALLVYDIAKHLTYENVERWLKELRDHADSNIVIMLVGNKSDLRHLRAVPTDEARAFAEKNGLSFIETSALDSTNVEAAFQTILTEIYRIVSQKQMSDRRENDMSPSNNVVPIHVPPTTENKPKVQCCQNI
- fold coimmunoprecipitated against Rab11a-WT or Rab11a-SN: ~5 fold

From publication PMC4230784 (Molecular Biology of the Cell, 2014)
